Here are results for one protein from paper PMC2724274 (Nucleic Acids Research, 2009).

The data set concerns the molecule itself. The data set is described as follows: crystal structure.

B1: CrgA (contact-regulated gene A), full-length, from Neisseria meningitidis (natural protein, UniProt Q9JXW7 1-299, looked up)
chain: MKTNSEELTVFVQVVESGSFSRAAEQLAMANSAVSRIVKRLEEKLGVNLLNRTTRQLSLTEEGAQYFRRAQRILQEMAAAETEMLAVHEIPQGVLSVDSAMPMVLHLLAPLAAKFNERYPHIRLSLVSSEGYINLIERKVDIALRAGELDDSGLRARHLFDSRFRVIASPEYLAKHGTPQSTEELAGHQCLGFTEPGSLNTWAVLDAQGNPYKISPHFTASSGEILRSLCLSGCGIVCLSDFLVDNDIAEGKLIPLLAEQTSDKTHPFNAVYYSDKAVNLRLRVFLDFLVEELGNNLCG
On to B1, for which the “stoichiometry N” value worked out at 8.

Broadly, the stoichiometry N is a count of units in the complex or per binding partner.
